# Where no end group is shown, it is not given here.
# B1: Phage-2153 (peptide)
# peptide: EHKWCIPDWMCMVA
# notes: Clonal phage of the Peptide-180 library, tested as crude supernatant; not shown: fused to the pIII filament of the bacteriophage
# B2: Phage-2160 (peptide)
# peptide: AMHWCIPKWMCETS
# notes: as for B1
# B3: Phage-2151 (peptide)
# peptide: YEIRCIPPWMCAFD
# notes: as for B1
# B4: Phage-2157 (peptide)
# peptide: DVIRCTPDWMCTGF
# notes: as for B1
# B5: Phage-2149 (peptide)
# peptide: ITNWCKPAWMCEVS
# notes: as for B1
# B6: Phage-2155 (peptide)
# peptide: EGRWCIPSWMCVGV
# notes: as for B1
# B7: Phage-2150 (peptide)
# peptide: VHIWCIPQWMCMDR
# notes: as for B1
# B8: Phage-2147 (peptide)
# peptide: VEKWCIPQWMCVSQ
# notes: as for B1
# B9: Phage-2158 (peptide)
# peptide: FERWCIPAWMCQSD
# notes: as for B1
# B10: Phage-2161 (peptide)
# peptide: EMKWCIPDWMCAAG
# notes: as for B1
# B11: Phage-2154 (peptide)
# peptide: LDKWCTPEWMCWGI
# notes: as for B1
# B12: Phage-2156 (peptide)
# peptide: VSKWCTPEWMCTGF
# notes: as for B1
# B13: Phage-2152 (peptide)
# peptide: IEKWCTPAWMCYGI
# notes: as for B1
# B14: Phage-2159 (peptide)
# peptide: ETKWCFPPWMCAGS
# notes: as for B1
# B15: Phage-2148 (peptide)
# peptide: IMKLCMPPWMCAAM
# notes: as for B1
# B16: Phage-2168 (peptide)
# peptide: GEKWCIPEWMCVHL
# notes: Clonal phage of the peptide-180 library, tested as crude supernatant; not shown: pIII of the bacteriophage, to which the peptide is fused
# B17: Phage-2172 (peptide)
# peptide: MAMMCIPPWMCDTM
# notes: as for B16
# B18: Phage-2175 (peptide)
# peptide: VIPWCIPEWMCTAS
# notes: as for B16
# B19: Phage-2176 (peptide)
# peptide: VEHWCTPRWMCRGF
# notes: as for B16
# B20: Phage-2169 (peptide)
# peptide: ESMLCRPVWMCVGF
# notes: as for B16
# B21: Phage-2162 (peptide)
# peptide: EVKLCRPPWMCEIF
# notes: as for B16
# B22: Phage-2164 (peptide)
# peptide: DIRWCIPDWMCTET
# notes: as for B16
# B23: Phage-2165 (peptide)
# peptide: VVPWCIPVWMCNSQ
# notes: as for B16
# B24: Phage-2167 (peptide)
# peptide: VQKWCVPEWMCGSW
# notes: as for B16
# B25: Phage-2163 (peptide)
# peptide: GSHWCIPPWMCQMS
# notes: as for B16
# B26: Phage-2166 (peptide)
# peptide: YEKWCTPAWMCEYQ
# notes: as for B16
# B27: Phage-2173 (peptide)
# peptide: ENKWCIPTWMCAHE
# modifications: cysteine pairing not given here; also: displayed on phage, fused to pIII
# notes: as for B16
# B28: Phage-2174 (peptide)
# peptide: YVNWCTPEWMCVGF
# notes: as for B16
# B29: Phage-2170 (peptide)
# peptide: DENWCKPLWMCKGF
# notes: as for B16
# B30: Phage-2171 (peptide)
# peptide: GDRLCVPEWMCEML
# notes: as for B16
# B31: Phage-2138 (peptide)
# peptide: VQKWCIPEWMCAVA
# B32: Phage-2146 (peptide)
# peptide: SAPWCIPEWMCFSL
# B33: Phage-2143 (peptide)
# peptide: VWHWCTPPWMCNAE
# B34: Phage-2136 (peptide)
# peptide: VYKWCTPPWMCTQM
# B35: Phage-2140 (peptide)
# peptide: EHKWCIPSWMCADM
# B36: Phage-2135 (peptide)
# peptide: TERWCVPAWMCTLV
# B37: Phage-2137 (peptide)
# peptide: VLKWCIPTWMCETQ
# B38: Phage-2145 (peptide)
# peptide: MVNWCTPPWMCWGF
# B39: Phage-2142 (peptide)
# peptide: IPKWCTPVWMCEGM
# B40: Phage-2144 (peptide)
# peptide: AEKWCIPNWMCEAG
# B41: Phage-2141 (peptide)
# peptide: EMKLCRPAWMCEYM
# B42: Phage-2139 (peptide)
# peptide: LEKWCTPSWMCIGI
# Biological target: T1, Anti-PSMA Fab (SEQ ID NOs: 19, 20)
# T1 construct: Biotinylated PSMA Fab captured on neutravidin coated plates in the phage ELISA; also called 006 PSMA Fab
# Test: phage ELISA; PSMA Fab on plate pre-incubated with PSMA antigen as competitor, anti-M13 HRP detection;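 further: crude clonal phage supernatants added to Fab-coated wells still holding PSMA antigen in blocking buffer, with bound phage as read-out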
# Experimental: (§1) Clonal phage were harvested as crude supernatants and screened via standard ELISAs. […] Prior to the addition of clonal phage. wells were incubated with blocking buffer and PSMA antigen or blocking buffer alone. Without washing or aspirating, clonal phage supernatants were then added to the wells and incubated for a short time. Wells were then washed followed by detection of bound phage using a horse radish conjugated anti-M13 antibody.
row,Binder,"Phage binding ELISA, Anti-PSMA Fab signal in the presence of PSMA"
1,B1,0.0728
2,B2,0.141
3,B3,0.117
4,B4,0.064
5,B5,0.114
6,B6,0.0956
7,B7,0.202
8,B8,0.0673
9,B9,0.066
10,B10,0.0716
11,B11,0.0536
12,B12,0.0826
13,B13,0.077
14,B14,0.337
15,B15,0.0907

# Biological target: T2, Anti-PSMA Fab (SEQ ID NOs: 19, 20)
# T2 construct: Biotinylated and captured on neutravidin coated plates in the phage ELISA; also called 006 PSMA Fab
# Test: phage ELISA; captured PSMA Fab pre-incubated with PSMA antigen as competitor, anti-M13 HRP detection
# Experimental: as §1
row,Binder,"Phage binding ELISA, Anti-PSMA Fab signal in the presence of PSMA"
1,B16,0.065
2,B17,0.0889
3,B18,0.0692
4,B19,0.0605
5,B20,0.0711
6,B21,0.0633
7,B22,0.0725
8,B23,0.0957
9,B24,0.0837
10,B25,0.0821
11,B26,0.0648
12,B27,0.0646
13,B28,0.0598
14,B29,0.105
15,B30,0.0685

# Biological target: T1, Anti-PSMA Fab (SEQ ID NOs: 19, 20)
# Test: phage ELISA; biotinylated PSMA Fab on neutravidin plate, clonal phage supernatant, anti-M13 HRP detection;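 further: wells preincubated with PSMA antigen in blocking buffer or with blocking buffer only before clonal phage were added for a short incubation, then bound phage detected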
# Experimental: as §1
row,Binder,"Phage binding ELISA, Anti-PSMA Fab (SEQ ID NOs: 19, 20) signal"
1,B1,1.67
2,B2,1.66
3,B3,1.68
4,B4,1.66
5,B5,1.68
6,B6,1.67
7,B7,1.68
8,B8,1.69
9,B9,1.66
10,B10,1.66
11,B11,1.67
12,B12,1.67
13,B13,1.68
14,B14,1.66
15,B15,1.68

# Biological target: T3, Anti-PSMA Fab (SEQ ID NOs: 19, 20)
# T3 construct: also called 006 PSMA Fab
# Test: phage ELISA; biotinylated PSMA Fab on neutravidin plate, clonal phage supernatant, anti-M13-HRP detection;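 further: wells were preincubated with blocking buffer containing PSMA antigen or with blocking buffer only, then phage supernatant was added without washing for a brief incubation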
# Experimental: as §1
row,Binder,"Phage binding ELISA, Anti-PSMA Fab (SEQ ID NOs: 19, 20) signal"
1,B31,1.7
2,B32,1.69
3,B33,1.69
4,B34,1.7
5,B35,1.69
6,B36,1.7
7,B37,1.7
8,B38,1.69
9,B39,1.69
10,B40,1.69
11,B41,1.69
12,B42,1.7

# Biological target: T2, Anti-PSMA Fab (SEQ ID NOs: 19, 20)
# Test: phage ELISA; biotinylated PSMA Fab captured on neutravidin plate, clonal phage supernatant, anti-M13 HRP detection
# Experimental: as §1
row,Binder,"Phage binding ELISA, Anti-PSMA Fab (SEQ ID NOs: 19, 20) signal"
1,B16,1.65
2,B17,1.65
3,B18,1.64
4,B19,1.64
5,B20,1.65
6,B21,1.66
7,B22,1.65
8,B23,1.65
9,B24,1.65
10,B25,1.66
11,B26,1.65
12,B27,1.64
13,B28,1.64
14,B29,1.65
15,B30,1.65

# Biological target: T3, Anti-PSMA Fab (SEQ ID NOs: 19, 20)
# Test: phage ELISA; biotinylated PSMA Fab on neutravidin plate pre-incubated with PSMA antigen as competitor, anti-M13-HRP detection
# Experimental: as §1
row,Binder,"Phage binding ELISA, Anti-PSMA Fab signal in the presence of PSMA"
1,B31,0.0584
2,B32,0.101
3,B33,0.141
4,B34,0.0779
5,B35,0.108
6,B36,0.0741
7,B37,0.0908
8,B38,0.194
9,B39,0.0647
10,B40,0.0588
11,B41,0.0727
12,B42,0.0773

# Source: patent publication US20260242478A1 (published 2026)
